Data published in the DeepSol protein solubility set.

Assay: soluble on expression in E. coli; label from the status in PepcDB or PDB records

Row | Sequence | soluble on expression in E. coli
1 | IQKMANSFQKLASSVVLFETEINEFLVLFTDTKNKREESEPVRQVSTTQEYHQVTLDQQHYFNHKLSDYFRLFKDKTFFFEII | not soluble
2 | MKREEIADLMAFVVVAEERSFTRAAARLSMVQSALSQIVRRIEERLGLRLLTRTTRSVVPTEAGEHLLSVLGPILHDIDSALTSLSDLQNRPSGTIRITTVEHAAKTILLPAMRTFLKSHPEIDIQLTIDYGLTDVVSERFDAGVLRCTGNSGYYHLFFF | not soluble
3 | MGSDKIHHHHHHMFISDLHIGDGSAKDDFFFDKELVNFIEDMSQTEDVELFVVGDGFEILESRTVKEIGLVSFEEVVETLDETVIDEIEKKHSEVFETLKKFSRRHRVYYVVGNHDYHILKNKKLQNALKNRFEKFEILPYYYDPHSKLLVLHGNQFDVINRFTVDRKTKKVIPPLGDYIARYMMINFDSQVVNFAPEDVIRDYDNVRPLLDVFHWFDYVTEIYDLSVDLVELWLKSFLSMLKTREARKWMKNNFPRTHWLSKVFVNRFGGVELGKVLVRSIYTLRKLRRVDYLQKWAKSILKGNLRWKEFMTGYSGDLHEVEEVDILVMGHVHHFAYRIVPTTQGKKLYVNCGSWRPVLEKLGIRKRHGFHRKAELPKIIMDFSGKNVEVKASITNVLGKIQGGDL | not soluble
4 | MVIMLATMLHSIAVGNLLPSYVKTICVDMNPSTVTKLMDRGTHQAIGVVTDVGLFLPLLYLKIKEIEAKE | not soluble
5 | MLGDVYHLFSGGKDSSLAAWILRKLGYEVRLVTITFGVLDNWKYAKETADILGFEHEVVRLPRELLNMAVEMCIEDGKPGRAIQFLHEKALEYVASRSYVKRISDGTRRDDKVPFLDLRKARSLEDRFNVAYIRPLLGLGYKTIRELANSIFVIEERESEKLEKGDYEAELRYMLRERGINPKTIFPSRHMQSRVVGIKDDELGRS | soluble
6 | MVRKQKRARLIYNPTSGQEIMKKNVAEVLDILESFGYETSAFQTTPRADSAKNEAARASQAGFDLVIAAGGDGTINEVVSGIAPLKRRPKVAIIPTGTTNDFARALKIPRGNPVEATKLIGKNQTIHMDIGRAYNDKYFINIAAAGSLTELTYSVPSQLKTMFGYLAYLVKGAELLPRVRNVPVKVFYDHGVFEGEASMIFVALTNSVGGFETIAPDAKLDDGKFTLILVKTANLFELTDLIRLVLTGGRHINHKKIEYIKTSYLKIIPQGNPPKRMMINLDGEYGGDAPIELRNLKNHIEFFANTDEISDDAITLDTEELVLEAIAQKFAREAESLDEMDKTKEQD | soluble
7 | MDEPVDVELVLAVDVSLSMSADELEIQRHGYAAALTHDNVLQAIADGAHGKIAVTYVEWAGTTWQRVIVPWTVIANRADAERVVAQLSAQPPNSARRTSISGALEFGSDLFAESGYEGTKRVIDISGDGPNNQGAPVNLTRDGVVRQGIVINGLPLMTRGGLSGAYDVNDLDRYYSDCVIGGPGAFMIPVNDWTQFPEAIRRKLVLELAGLEHHHHHH | soluble
8 | MENVCFQQRLRDLETRVRKWKFLKLGLTEVRLRPRDRRSTSVDQKHKECSSTSSSPQHQRPNNIGYLTSPMERKFTPLSMKPSPSRRDTEKDALEYEFLEGYKKSGTLEIDGEKQVVDPNEIHIISLLGSGSCGVVESATVRSKLMAVKTMYKNDNKENLKRILRDVRIMSMCNSPFIVTSYGYFMFDSSVKICMQIMSACCEKLLRRIYHSKLDFFPEFVAGHIVYSAISALDYLKEKHSIIHRDIKPSNILFDDSGNVKLCDFGISGFMTDSMAHSKSAGCPPYMAPERLTIETNSKYDVRSDVWSLGITVYQLVTGLYPFPLNDMEFTTLTIIANLNLPSPSLREETKRSFSPLFIEFLDLCLRKDVRERPEYRQLMKHDFYLDYDPASGSAYKFKAINGKCNQVADWFVDVIRLSKTEDELKSIPNTPCVN | not soluble
9 | MGSCMKWDYGEMEDFSVSASGLFITNEGNFQYSNATLSYYDPATCEVENEVFYRANGFKLGDVAQSMVIRDGIGWIVVNNSHVIFAIDINTFKEVGRITGFTSPRYIHFLSDEKAYVTQIWDYRIFIINPKTYEITGYIECPDMDMESGSTEQMVQYGKYVYVNCWSYQNRILKIDTETDKVVDELTIGIQPTSLVMDKYNKMWTITDGGYEGSPYGYEAPSLYRIDAETFTVEKQFKFKLGDWPSEVQLNGTRDTLYWINNDIWRMPVEADRVPVRPFLEFRDTKYYGLTVNPNNGEVYVADAIDYQQQGIVYRYSPQGKLIDEFYVGLEHHHHHH | soluble
10 | SNAMIRKYRYGAPFDTEALTEKIETAEEAFPYGEISQKEGFAFTYIMDEDDIVYGLGESNRGINKRGYCYISNCTDDPIHTEDKRSLYGAHNFIIVSGKTTFGLFFDYPSKLTFDIGYTRMDTLKVSCENADLDIYVIEGENAYDIVKQFRRVIGRSYIPPKFAFGFGQSRWGYTTKEDFRAVAKGYRENHIPIDMIYMDIDYMQDFKDFTVNEKNFPDFPEFVKEMKDQELRLIPIIDAGVKVEKGYEVYEEGVKNNYFCKREDGSDFVAAVWPGDTHFPDMLNPEARKWFGDKYRFLIDQGIEGFWNDMNEPAIFYSSEGLAEAKEFAGEFAKDTEGKIHPWAMQAKMKDIVNSPEDYKRFYHNVNGKKIRHDKVHNLFGYNMTRAAGEAFERIDPEKRFLMFSRSSYIGMHRYGGIWMGDNKSWWSHILLNLKMLPSLNMCGFMYTGADLGGFGDDTTRDLLLRFLALGVFTPLMRDHAAEGTREQECYQFENIEDFRSVINARYRLVPYLYSEYMKAALNDDMYFKPLGFVYPDDKMAIRVEDQLMLGNEIMIAPVYEQNARGRYVYLPEEMKFIKFMPDGSISEEVLEKGVHYVDVALNEVPLFIRSGKCIPVAEAAECVKDIDTENMQLIGYEGSSYTLYEDDGIHKDYDKKENYRVLTK | soluble
11 | MTVWSKLLSALRGGANEVGEAIVDSQALRILDQEIRDADVELRKSREALASIMARHRLAQERVEKGAAQVAEYEQYAIKALEAGNEELAREVAEKIATLENQLEGERAQVAEFAASVAQLRKSVSQAEGNIRQLKQQVDTVKATESVQKAQMAVAQRYGNSKSKLQTAVDSLERIKQRQAERAATMDAAAELASAAAPDDALDAKLRAAGIKASGNSVDGVLARLKEKGKAAAALEHHHHHH | not soluble
12 | RSSLRKKEFGSKERLLEELRCKKTVLHEVDVTLDPDTAHPHLFLYEDSKSVRLEDSRQILPDRPERFDSWPCVLGRETFTSGRHYWEVEVGDRTDWAIGVCRENVVKKGFDPMTPDNGFWAVELYGNGYWALTPLRTSLRLAGPPRRVGVFLDYDAGDISFYNMSNGSLIYTFPSISFSGPLRPFFCLWSCGKKPLTICSTANGPEKVTVIANVQDD | not soluble
13 | MSLLFDSHLHLDQLSDENIQQTLAHSKIIGMLAVSTNLNSAKKLLNLKQTYPKKLYIAAGFHPEQQLPSLEEQKKLFQWIDEHHSSISAIGEVGLPHYSKRENPNLDYVPYIELLERFILIAKKWDLPLNLHIVHNDVEIALELLQKHNIQRAHFHWFKTDEKSFQKFFSTPYFASLTPDILWNSKTQYVAQHLSLNRLMIETDSPWQHEGFERAGISEQLLAVLQKLAELKSLPLHSVQKQILLNTQQFYQLEGHHHHHH | soluble
14 | MEYGIVYLLTNPVMPGLVKIGMTTQEGIDKRMKELYTTGVPIPFECKFACKVKKSDCLKIEKALHKAFDPQRINQNREFFRINVEQAQAILELFHHEDVTEEVTDEIQNDLTDEDKAASTKAQAKRPPLNFYEMGLQKGDILIWKDDPSISVTVLSERKVCYEGEETSISALSAKLKGYKVKHIQPTPHWFFNDRSLSEIYDETYPFEE | not soluble
15 | MTLHLPGADGTLRAYEPRTEPLPTLRATSGSAFSSRTVFSAAHVVADPYADTTPDGPAAVDWDATLAFRRHLWSHGLGVAEAMDTAQRGMGLDWPTAAELIRRSAAEARATGGRIACGVGTDQLTATAATLADVRSAYEEQLAVVEESGAQAILMASRALAATAKGPDDYLEVYGHLLRQAAEPVILHWLGPMFDPALEGYWGSSDLDAATDTFLEVIAAHPDKVDGIKVSLLDAQREIDLRRRLPRGVRCYTGDDFNYPELIAGDEQGFSHALLGIFDPLGPLAAEAVRVLDTGDTDGFRALLDPTVELSRHLFRAPTRYYKTGVVFLAWLAGHQSHFTMVGGLQSARSLPHLARAYELADGLGLFPDPKPAEERMRNLLALYGVN | not soluble
